Data as given in US20250388666A1 (BRIGHAM AND WOMEN S HOSPITAL, published 2025).

Tests used:
[1] = biological target: T1, CEACAM1 (Sino Biological) (human, UniProt P13688 35-428, limits assumed); experiment: SPR single-cycle
T1 construct: may be the same as CEACAM1-HIS; also called hCEACAM1; biotinylated soluble CEACAM1
T1 sequence: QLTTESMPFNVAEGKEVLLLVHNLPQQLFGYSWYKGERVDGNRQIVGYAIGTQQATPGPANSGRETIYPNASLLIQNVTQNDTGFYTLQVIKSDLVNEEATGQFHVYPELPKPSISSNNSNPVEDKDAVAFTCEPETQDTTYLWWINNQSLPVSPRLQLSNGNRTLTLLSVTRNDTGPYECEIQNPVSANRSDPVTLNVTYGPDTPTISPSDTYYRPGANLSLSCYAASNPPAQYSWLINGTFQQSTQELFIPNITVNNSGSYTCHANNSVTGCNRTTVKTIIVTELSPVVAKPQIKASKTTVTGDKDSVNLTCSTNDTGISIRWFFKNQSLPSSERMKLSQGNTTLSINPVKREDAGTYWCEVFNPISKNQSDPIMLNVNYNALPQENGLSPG
In short: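 Humanized affinity-matured IgGs from crude supernatants captured on Protein A to ~100 RU, with CEACAM1 analyte injected at 25–100 nM (three-point, two-fold) in HBS-P+ without regeneration. 200 s association per injection, 300 s single dissociation; reference-channel and blank subtracted.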

[2] = biological target: T1, CEACAM1 (Sino Biological); experiment: SPR single-cycle; one of the two experiments; the Parent of the other experiment reads 551 nM (r135)
[3] = biological target: T2, CEACAM5 (Sino Biological) (human, UniProt P06731 35-685); experiment: binding ELISA on plate-coated CEACAM (0.5 µg/mL); antibody at 1.67, 0.062 and 0.0069 µg/mL; signal as % of parent IgG on CEACAM1 at 1.67 µg/mL on the same plate
T2 construct: also called hCEACAM5
T2 sequence (looked up): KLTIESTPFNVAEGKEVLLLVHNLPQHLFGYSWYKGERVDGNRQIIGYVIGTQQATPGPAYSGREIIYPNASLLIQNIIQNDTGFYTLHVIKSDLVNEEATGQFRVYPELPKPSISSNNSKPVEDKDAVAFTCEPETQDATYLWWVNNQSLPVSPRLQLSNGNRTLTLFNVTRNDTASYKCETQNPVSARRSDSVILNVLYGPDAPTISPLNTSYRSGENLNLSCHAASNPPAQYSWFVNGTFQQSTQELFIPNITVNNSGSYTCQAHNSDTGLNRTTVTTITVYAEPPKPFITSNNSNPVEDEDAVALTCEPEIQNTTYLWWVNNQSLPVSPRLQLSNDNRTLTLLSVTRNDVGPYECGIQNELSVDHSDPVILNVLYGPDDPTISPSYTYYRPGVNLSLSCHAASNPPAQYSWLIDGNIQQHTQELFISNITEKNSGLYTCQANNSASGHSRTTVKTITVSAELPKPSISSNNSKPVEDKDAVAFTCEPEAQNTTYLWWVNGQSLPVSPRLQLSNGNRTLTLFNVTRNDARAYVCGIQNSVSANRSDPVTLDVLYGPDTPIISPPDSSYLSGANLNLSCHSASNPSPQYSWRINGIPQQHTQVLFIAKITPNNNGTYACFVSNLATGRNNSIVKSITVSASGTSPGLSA

[4] = biological target: T3, CEACAM6 (Sino Biological) (human, UniProt P40199 35-320); experiment: as above
T3 construct: also called hCEACAM6
T3 sequence (looked up): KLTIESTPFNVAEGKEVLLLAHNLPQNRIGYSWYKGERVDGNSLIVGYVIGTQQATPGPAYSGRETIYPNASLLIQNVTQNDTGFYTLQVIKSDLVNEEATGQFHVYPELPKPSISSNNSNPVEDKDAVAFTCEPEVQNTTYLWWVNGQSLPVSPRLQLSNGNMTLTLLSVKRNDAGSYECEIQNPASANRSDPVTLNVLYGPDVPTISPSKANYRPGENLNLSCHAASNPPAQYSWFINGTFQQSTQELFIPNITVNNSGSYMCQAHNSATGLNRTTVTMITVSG

B1: VH2 N56Q/Vκ4 S27(f)A IgG (antibody, V domains shown)
VH: EVQLLESGGGLVQPGGSLRLSCAASGFSFSDYYLYWVRQAPGKGLEWVATISVGGGQTSYADSVKGRFTISRDNSKNTLYLQMNSLRAEDTAMYYCTRGLYYGPAWFAYWGQGTLVTVSS
VL: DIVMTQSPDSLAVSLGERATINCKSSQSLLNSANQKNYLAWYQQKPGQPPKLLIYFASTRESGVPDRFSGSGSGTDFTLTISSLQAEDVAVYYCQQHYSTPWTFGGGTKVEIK
notes: IgG4 S241P, kappa; also called Parent; Parent IgG
- Kd [1]: 551 nM
- fold better than Parent (KD) [1]: 1 fold
- Kd [2]: 159 nM
- binding result [3]: no binding (tested: 1.67 µg/mL)
- binding result [4]: no binding (tested: 1.67 µg/mL)
